Results published in PMC3196764 (Progress in retinal and eye research, 2011).

Key:
[1] = target: calmodulin (Bos taurus) (UniProt P62157); conditions: cited from earlier work
[2] = target: light-activated unphosphorylated rhodopsin (UniProt P02699 1-348, light-activated)
Chain of light-activated unphosphorylated rhodopsin (P02699 whole entry): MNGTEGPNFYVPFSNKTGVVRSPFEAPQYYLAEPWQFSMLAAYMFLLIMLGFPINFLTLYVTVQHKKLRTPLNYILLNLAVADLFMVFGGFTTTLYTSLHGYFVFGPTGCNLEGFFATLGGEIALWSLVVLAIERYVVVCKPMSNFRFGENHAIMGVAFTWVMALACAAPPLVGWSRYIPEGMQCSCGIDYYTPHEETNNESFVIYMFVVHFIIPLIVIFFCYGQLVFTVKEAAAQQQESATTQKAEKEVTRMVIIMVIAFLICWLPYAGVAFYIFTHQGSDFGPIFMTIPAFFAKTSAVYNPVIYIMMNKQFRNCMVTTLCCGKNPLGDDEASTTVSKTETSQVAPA

Molecule	Kd [1]	percent of the maximum binding achieved at 37°C [2]
arrestin-1 (from UniProt P08168)	7 µM	–
arrestin-1 3A+R175E combination mutant (natural protein, UniProt P08168 1-404, looked up) MKANKPAPNHVIFKKISRDKSVTIYLGKRDYIDHVERVEPVDGVVLVDPELVKGKRVYVSLTCAFRYGQEDIDVMGLSFRRDLYFSQVQVFPPVGASGATTRLQESLIKKLGANTYPFLLTFPDYLPCSVMLQPAPQDVGKSCGVDFEIKAFATHSTDVEEDKIPKKSSVRLLIEKVQHAPRDMGPQPRAEASWQFFMSDKPLRLAVSLSKEIYYHGEPIPVTVAVTNSTEKTVKKIKVLVEQVTNVVLYSSDYYIKTVAAEEAQEKVPPNSSLTKTLTLVPLLANNRERRGIALDGKIKHEDTNLASSTIIKEGIDKTVMGILVSYQIKVKLTVSGLLGELTSSEVATEVPFRLMHPQPEDPDTAKESFQDENAAAEEFARQNLKDAGEYKEEKTDQEAAMDE	–	26%
